Read-outs that look alike come from different tables or passages of the source.
What was measured:
Test in all cases: pull-down
[1] = biological target: T1, His-tagged CaMKIIα-FL(M1-H478) (UniProt P11275 1-478)
[2] = biological target: T1, His-tagged CaMKIIα-FL(M1-H478); remark: listed apart in the source
[3] = biological target: T286-autophosphorylated CaMKIIα (UniProt P11275 1-478, phosphothreonine at 286 (autophosphorylation))
[4] = biological target: GST-CaMKIIα-FL(M1-H478) (UniProt P11275 1-478)
GST-CaMKIIα-FL(M1-H478), sequence (P11275 whole entry): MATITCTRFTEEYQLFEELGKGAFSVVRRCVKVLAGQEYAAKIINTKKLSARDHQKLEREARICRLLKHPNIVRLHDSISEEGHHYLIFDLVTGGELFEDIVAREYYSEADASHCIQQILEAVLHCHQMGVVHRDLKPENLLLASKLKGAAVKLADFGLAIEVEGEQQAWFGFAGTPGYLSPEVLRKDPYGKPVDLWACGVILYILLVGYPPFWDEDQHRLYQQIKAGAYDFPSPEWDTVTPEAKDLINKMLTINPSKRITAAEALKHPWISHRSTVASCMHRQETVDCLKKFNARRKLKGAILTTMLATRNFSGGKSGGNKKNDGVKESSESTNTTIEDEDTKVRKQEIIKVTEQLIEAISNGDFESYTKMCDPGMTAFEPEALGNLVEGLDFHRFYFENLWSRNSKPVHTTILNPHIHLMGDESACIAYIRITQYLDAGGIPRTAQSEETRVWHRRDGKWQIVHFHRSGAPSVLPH

T1 sequence (P11275 whole entry): as above
T286-autophosphorylated CaMKIIα, sequence (P11275 whole entry): as above

binding result [1]	binding result [2]	Binder	also measured
binds		KPERNVRSAFTTSDVVRMHVGDGKLPCRSNTFLNIFRRKKPGAGN (domain or fragment, rat, UniProt P23385 841-885, looked up) [GST-mGluR1a-CT1a(K841-N885)]	
	binds	GST-mGluR1a-CT1(K841-T1000) (domain or fragment, rat, UniProt P23385 841-1000, looked up) KPERNVRSAFTTSDVVRMHVGDGKLPCRSNTFLNIFRRKKPGAGNANSNGKSVSWSEPGGRQAPKGQHVWQRLSVHVKTNETACNQTAVIKPLTKSYQGSGKSLTFSDASTKTLYNVEEEDNTPSAHFSPPSSPSMVVHRRGPPVATTPPLPPHLTAEET	binding result [3]: binds
binds		GST-mGluR1a-CT-FL(K841-L1199) (domain or fragment, rat, UniProt P23385 841-1199, looked up) KPERNVRSAFTTSDVVRMHVGDGKLPCRSNTFLNIFRRKKPGAGNANSNGKSVSWSEPGGRQAPKGQHVWQRLSVHVKTNETACNQTAVIKPLTKSYQGSGKSLTFSDASTKTLYNVEEEDNTPSAHFSPPSSPSMVVHRRGPPVATTPPLPPHLTAEETPLFLADSVIPKGLPPPLPQQQPQQPPPQQPPQQPKSLMDQLQGVVTNFGSGIPDFHAVLAGPGTPGNSLRSLYPPPPPPQHLQMLPLHLSTFQEESISPPGEDIDDDSERFKLLQEFVYEREGNTEEDELEEEEDLPTASKLTPEDSPALTPPSPFRDSVASGSSVPSSPVSESVLCTPPNVTYASVILRDYKQSSSTL	
		purified mGluR1a-CT (domain or fragment, rat, UniProt P23385 841-1199, looked up) KPERNVRSAFTTSDVVRMHVGDGKLPCRSNTFLNIFRRKKPGAGNANSNGKSVSWSEPGGRQAPKGQHVWQRLSVHVKTNETACNQTAVIKPLTKSYQGSGKSLTFSDASTKTLYNVEEEDNTPSAHFSPPSSPSMVVHRRGPPVATTPPLPPHLTAEETPLFLADSVIPKGLPPPLPQQQPQQPPPQQPPQQPKSLMDQLQGVVTNFGSGIPDFHAVLAGPGTPGNSLRSLYPPPPPPQHLQMLPLHLSTFQEESISPPGEDIDDDSERFKLLQEFVYEREGNTEEDELEEEEDLPTASKLTPEDSPALTPPSPFRDSVASGSSVPSSPVSESVLCTPPNVTYASVILRDYKQSSSTL	binding result [4]: binds
	binds	KLPCRSNTFLNIFR [mGluR1a-i (14-amino acid interfering peptide)]	
